Consider 2 molecules from patent US20240261378A1 (UNM RAINFOREST INNOVATIONS, published 2024).

For one test, the target named is T1, endogenous TRIM16 (human, UniProt O95361 1-564).
T1 construct: Endogenous protein, immunoprecipitated from cell lysates
The test is described as follows: co-IP of endogenous proteins, HeLa lysates.

The target in a further test is Optineurin (UniProt Q96CV9 1-577, limits assumed). Kind of test: GST-galectin-8 pull-down with Sequestosome 1-like receptors.
For test [1], the target named is T2, [35S] myc-HA-TRIM16 wild type (in vitro translated) (human, UniProt O95361 1-564, [35S]-methionine radiolabel).
T2 construct: not shown: Myc-HA tag
The test is described as follows: GST pull-down of in vitro translated 35S-labelled TRIM.

Test [2] deals with T3, 35S-Myc-HA-TRIM21 (in vitro translated) (human, UniProt P19474 1-475, [35S]-methionine radiolabel).
T3 construct: not shown: Myc-HA tag
T3 sequence (P19474 whole entry): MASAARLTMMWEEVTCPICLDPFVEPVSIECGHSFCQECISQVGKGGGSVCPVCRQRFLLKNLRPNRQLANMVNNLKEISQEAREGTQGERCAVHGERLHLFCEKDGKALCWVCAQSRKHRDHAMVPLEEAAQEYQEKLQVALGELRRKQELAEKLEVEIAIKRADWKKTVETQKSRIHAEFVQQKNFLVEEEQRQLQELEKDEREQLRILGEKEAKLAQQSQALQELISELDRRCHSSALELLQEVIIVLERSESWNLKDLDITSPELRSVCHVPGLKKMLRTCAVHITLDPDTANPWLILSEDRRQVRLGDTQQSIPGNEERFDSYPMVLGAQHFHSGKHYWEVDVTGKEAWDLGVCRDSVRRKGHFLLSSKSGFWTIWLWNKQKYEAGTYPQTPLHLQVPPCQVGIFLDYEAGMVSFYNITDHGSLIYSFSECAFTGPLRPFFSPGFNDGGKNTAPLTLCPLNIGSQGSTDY
The test is described as above.

Optineurin, sequence (Q96CV9 whole entry): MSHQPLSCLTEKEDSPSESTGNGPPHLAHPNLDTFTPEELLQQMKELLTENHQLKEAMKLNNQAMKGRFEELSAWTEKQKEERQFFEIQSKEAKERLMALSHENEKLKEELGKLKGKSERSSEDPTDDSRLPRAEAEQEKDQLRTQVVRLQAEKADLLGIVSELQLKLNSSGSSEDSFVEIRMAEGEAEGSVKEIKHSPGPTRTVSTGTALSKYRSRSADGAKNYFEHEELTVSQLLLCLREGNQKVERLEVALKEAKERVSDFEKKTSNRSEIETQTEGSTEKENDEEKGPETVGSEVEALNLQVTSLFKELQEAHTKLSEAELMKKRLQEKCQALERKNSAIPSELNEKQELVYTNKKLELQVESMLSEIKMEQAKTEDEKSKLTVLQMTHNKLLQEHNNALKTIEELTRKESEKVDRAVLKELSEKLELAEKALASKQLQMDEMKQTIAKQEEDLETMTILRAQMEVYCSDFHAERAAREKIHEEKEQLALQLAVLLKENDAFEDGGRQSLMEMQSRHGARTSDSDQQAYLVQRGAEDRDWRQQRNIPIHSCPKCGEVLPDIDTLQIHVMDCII
Source text for Optineurin: GST-fusion proteins were expressed in Escherichia coli SoluBL21 (Amsbio). […] The [³⁵S] labeled proteins were produced using the TNT T7 Quick Coupled Transcription/Translation System (Promega) in the presence of [³⁵S] L-methionine. The proteins were eluted from washed beads by boiling in SDS-PAGE gel loading buffer. separated by SDS-PAGE, and radiolabeled proteins were detected in a Fujifilm bioimaging analyzer BAS-5000 (Fuji).

B1: endogenous ULK1 (enzyme, UniProt O75385 1-1050, looked up)
chain: MEPGRGGTETVGKFEFSRKDLIGHGAFAVVFKGRHREKHDLEVAVKCINKKNLAKSQTLLGKEIKILKELKHENIVALYDFQEMANSVYLVMEYCNGGDLADYLHAMRTLSEDTIRLFLQQIAGAMRLLHSKGIIHRDLKPQNILLSNPAGRRANPNSIRVKIADFGFARYLQSNMMAATLCGSPMYMAPEVIMSQHYDGKADLWSIGTIVYQCLTGKAPFQASSPQDLRLFYEKNKTLVPTIPRETSAPLRQLLLALLQRNHKDRMDFDEFFHHPFLDASPSVRKSPPVPVPSYPSSGSGSSSSSSSTSHLASPPSLGEMQQLQKTLASPADTAGFLHSSRDSGGSKDSSCDTDDFVMVPAQFPGDLVAEAPSAKPPPDSLMCSGSSLVASAGLESHGRTPSPSPPCSSSPSPSGRAGPFSSSRCGASVPIPVPTQVQNYQRIERNLQSPTQFQTPRSSAIRRSGSTSPLGFARASPSPPAHAEHGGVLARKMSLGGGRPYTPSPQVGTIPERPGWSGTPSPQGAEMRGGRSPRPGSSAPEHSPRTSGLGCRLHSAPNLSDLHVVRPKLPKPPTDPLGAVFSPPQASPPQPSHGLQSCRNLRGSPKLPDFLQRNPLPPILGSPTKAVPSFDFPKTPSSQNLLALLARQGVVMTPPRNRTLPDLSEVGPFHGQPLGPGLRPGEDPKGPFGRSFSTSRLTDLLLKAAFGTQAPDPGSTESLQEKPMEIAPSAGFGGSLHPGARAGGTSSPSPVVFTVGSPPSGSTPPQGPRTRMFSAGPTGSASSSARHLVPGPCSEAPAPELPAPGHGCSFADPITANLEGAVTFEAPDLPEETLMEQEHTEILRGLRFTLLFVQHVLEIAALKGSASEAAGGPEYQLQESVVADQISLLSREWGFAEQLVLYLKVAELLSSGLQSAIDQIRAGKLCLSSTVKQVVRRLNELYKASVVSCQGLSLRLQRFFLDKQRLLDRIHSITAERLIFSHAVQMVQSAALDEMFQHREGCVPRYHKALLLLEGLQHMLSDQADIENVTKCKLCIERRLSALLTGICA
With B1, the binding result with endogenous TRIM16 was “binds”.

B2: GST-Galectin-8 (other)
chain: MMLSLNNLQNIIYNPVIPFVGTIPDQLDPGTLIVIRGHVPSDADRFQVDLQNGSSMKPRADVAFHFNPRFKRAGCIVCNTLINEKWGREEITYDTPFKREKSFEIVIMVLKDKFQVAVNGKHTLLYGHRIGPEKIDTLGIYGKVNIHSIGFSFSSDLQSTQASSLELTEISRENVPKSGTPQLPSNRGGDISKIAPRTVYTKSKDSTVNHTLTCTKIPPMNYVSKRLPFAARLNTPMGPGRTVVVKGEVNANAKSFNVDLLAGKSKDIALHLNPRLNIKAFVRNSFLQESWGEEERNITSFPFSPGMYFEMIIYCDVREFKVAVNGVHSLEYKHRFKELSSIDTLEINGDIHLLEVRSW
notes: not shown: GST tag (fusion expressed in E. coli SoluBL21)
For the molecule B2, the binding result (in the test with Optineurin; in test [1]; in test [2]) was “no binding” each time.
